In patent publication US6638503:

How the values were obtained:
Bovine serum albumin = Bovine serum albumin (UniProt P02769)
[1] = system: bovine serum albumin, haemoglobin, fibrinogen and thrombin
Human fibrinogen = Human fibrinogen (UniProt P02671)
Sequence of Human fibrinogen (P02671 20-629, chain 1 of 3): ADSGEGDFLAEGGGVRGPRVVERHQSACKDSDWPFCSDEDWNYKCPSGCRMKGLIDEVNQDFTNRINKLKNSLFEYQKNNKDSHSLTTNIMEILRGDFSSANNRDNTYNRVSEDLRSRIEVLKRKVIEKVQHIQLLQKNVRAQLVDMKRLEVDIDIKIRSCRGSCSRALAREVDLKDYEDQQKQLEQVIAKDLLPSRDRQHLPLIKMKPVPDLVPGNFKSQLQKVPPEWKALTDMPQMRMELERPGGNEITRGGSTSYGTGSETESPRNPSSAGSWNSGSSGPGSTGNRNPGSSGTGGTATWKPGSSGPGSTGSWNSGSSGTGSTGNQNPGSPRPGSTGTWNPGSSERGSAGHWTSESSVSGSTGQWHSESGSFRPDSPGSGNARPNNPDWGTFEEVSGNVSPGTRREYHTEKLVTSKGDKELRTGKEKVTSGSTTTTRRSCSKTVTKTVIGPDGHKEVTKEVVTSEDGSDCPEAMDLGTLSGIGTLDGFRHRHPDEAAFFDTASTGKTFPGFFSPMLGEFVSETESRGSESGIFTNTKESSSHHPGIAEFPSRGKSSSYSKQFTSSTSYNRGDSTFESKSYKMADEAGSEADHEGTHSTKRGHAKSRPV
Sequence of Human fibrinogen (chain, as listed by the source, chain 2 of 3): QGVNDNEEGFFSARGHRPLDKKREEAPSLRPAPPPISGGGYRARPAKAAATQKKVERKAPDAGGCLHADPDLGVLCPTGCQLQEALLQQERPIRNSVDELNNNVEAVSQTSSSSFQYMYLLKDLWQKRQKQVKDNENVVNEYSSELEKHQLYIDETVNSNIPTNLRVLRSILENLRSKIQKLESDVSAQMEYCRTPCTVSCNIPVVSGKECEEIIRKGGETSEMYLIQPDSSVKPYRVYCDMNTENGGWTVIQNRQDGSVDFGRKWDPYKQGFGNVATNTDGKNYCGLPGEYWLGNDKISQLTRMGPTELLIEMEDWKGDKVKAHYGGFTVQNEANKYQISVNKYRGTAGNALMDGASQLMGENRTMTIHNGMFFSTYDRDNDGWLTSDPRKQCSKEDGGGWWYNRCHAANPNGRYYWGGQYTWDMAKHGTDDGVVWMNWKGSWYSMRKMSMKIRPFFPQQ
Sequence of Human fibrinogen (chain, as listed by the source, chain 3 of 3): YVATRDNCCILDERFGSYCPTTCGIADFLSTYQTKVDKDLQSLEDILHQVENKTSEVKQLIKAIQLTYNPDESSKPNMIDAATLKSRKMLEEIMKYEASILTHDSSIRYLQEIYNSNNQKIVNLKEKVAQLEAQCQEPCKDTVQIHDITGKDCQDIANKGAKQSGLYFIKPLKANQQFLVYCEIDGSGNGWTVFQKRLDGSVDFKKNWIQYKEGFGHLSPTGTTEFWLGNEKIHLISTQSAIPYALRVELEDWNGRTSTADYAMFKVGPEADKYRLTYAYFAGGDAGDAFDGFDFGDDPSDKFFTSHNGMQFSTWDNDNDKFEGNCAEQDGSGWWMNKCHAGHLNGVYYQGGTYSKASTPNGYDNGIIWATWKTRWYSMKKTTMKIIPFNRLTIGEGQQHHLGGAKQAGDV

Sequence of plasminogen (chain, as listed by the source): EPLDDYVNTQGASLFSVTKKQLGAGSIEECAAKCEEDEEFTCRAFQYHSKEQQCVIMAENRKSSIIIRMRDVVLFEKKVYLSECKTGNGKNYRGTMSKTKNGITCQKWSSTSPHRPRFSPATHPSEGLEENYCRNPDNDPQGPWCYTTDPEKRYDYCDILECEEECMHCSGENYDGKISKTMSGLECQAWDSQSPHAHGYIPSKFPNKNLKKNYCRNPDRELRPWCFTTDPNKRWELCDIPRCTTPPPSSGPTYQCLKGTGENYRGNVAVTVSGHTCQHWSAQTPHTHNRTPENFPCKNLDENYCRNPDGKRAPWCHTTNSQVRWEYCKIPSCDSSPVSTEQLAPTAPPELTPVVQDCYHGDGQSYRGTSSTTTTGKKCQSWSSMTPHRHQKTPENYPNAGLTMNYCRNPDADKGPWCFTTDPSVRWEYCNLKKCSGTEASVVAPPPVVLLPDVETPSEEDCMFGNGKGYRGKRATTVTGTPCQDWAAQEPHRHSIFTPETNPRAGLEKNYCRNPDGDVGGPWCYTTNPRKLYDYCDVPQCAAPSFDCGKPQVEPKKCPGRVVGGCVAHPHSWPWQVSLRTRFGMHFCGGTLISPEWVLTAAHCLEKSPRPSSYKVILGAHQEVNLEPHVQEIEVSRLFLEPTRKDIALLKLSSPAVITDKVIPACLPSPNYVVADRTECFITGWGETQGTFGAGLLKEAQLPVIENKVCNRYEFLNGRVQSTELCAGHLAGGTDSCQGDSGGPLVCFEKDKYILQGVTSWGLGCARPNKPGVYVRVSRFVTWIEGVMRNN
Sequence of Bovine serum albumin (P02769 25-607): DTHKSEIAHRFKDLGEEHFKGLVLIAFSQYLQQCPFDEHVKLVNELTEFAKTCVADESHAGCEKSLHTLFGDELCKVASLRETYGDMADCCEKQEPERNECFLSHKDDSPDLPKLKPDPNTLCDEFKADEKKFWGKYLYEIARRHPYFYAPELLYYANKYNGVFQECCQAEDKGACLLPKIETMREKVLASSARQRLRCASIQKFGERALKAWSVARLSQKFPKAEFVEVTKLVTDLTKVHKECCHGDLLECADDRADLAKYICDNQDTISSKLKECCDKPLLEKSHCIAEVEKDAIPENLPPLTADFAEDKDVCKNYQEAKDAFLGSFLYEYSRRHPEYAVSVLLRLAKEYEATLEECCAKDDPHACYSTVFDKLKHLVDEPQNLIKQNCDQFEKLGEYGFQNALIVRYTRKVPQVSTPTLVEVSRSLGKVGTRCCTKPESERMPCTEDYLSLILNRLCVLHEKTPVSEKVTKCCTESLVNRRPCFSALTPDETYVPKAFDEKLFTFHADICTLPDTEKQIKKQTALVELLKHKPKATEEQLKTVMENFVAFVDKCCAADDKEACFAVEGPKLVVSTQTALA

Substance: actinokinase (fibrinolytic enzyme from Streptomyces megasporus SD5)
- Relative activity (%) (Hemoglobin): 8%
- Relative activity (%) (Fibrin): 100%
- fibrinolytic activity (Fibrin): 1.0×10^3 µmole/ tyrosine mg^-1 protein min^-1
- Relative activity (%) (Bovine serum albumin): 32%
- Relative activity (%) (Thrombin): 27%
- proteolytic activity, % of the control [1]: varied from 5-30% of the control
- Relative activity (%) (Human fibrinogen): 12%
- caseinolytic activity (casein): 1.0×10^2 µmole/tyrosine mg^-1 protein min^-1
- amidolytic activity with and without added plasminogen (plasminogen): Amydolytic activity exhibited by the enzyme was same in presence and absence of plasminogen
